Measurements published in paper PMC5931632, “A multi-antigenic MVA vaccine increases efficacy of combination chemotherapy against Mycobacterium tuberculosis” (PLoS ONE, 2018).

Molecular target: T1, Rv0287 (Mycobacterium tuberculosis, UniProt O53692 1-97)
T1 sequence: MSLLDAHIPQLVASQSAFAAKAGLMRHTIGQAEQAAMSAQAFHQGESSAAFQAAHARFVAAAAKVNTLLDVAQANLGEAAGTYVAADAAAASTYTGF
Test: pull-down
Conditions: both partners purified

B1: TB10.4 (natural protein)
chain: MSQIMYNYPAMLGHAGDMAGYAGTLQSLGAEIAVEQAALQSAWQGDTGITYQAWQAQWNQAMEDLVRAYHAMSSTHEANTMAMMARDTAEAAKWGG
notes: also called Rv0288
B1: binds.
